# Data as given in PMC5612244.
# Key:
# [1] = target: recombinant EsGLUT4 extracellular region (between TM1 and TM2) (Eriocheir sinensis); experiment: BLI; ForteBio Octet RED96; biotinylated rEsGLUT4 region (50 µg/ml) immobilised on streptavidin (SA) sensors; four serial concentrations of CHHBP, highest 1 µM (intracellular region) and 0.38 µM (extracellular region); association 300 s, dissociation 600 s; room temperature; physiological saline for crab
# [2] = target: recombinant EsGLUT4 intracellular region (between TM6 and TM7) (Eriocheir sinensis); experiment: as above
substance,measurement,setting,value
"recombinant CHH binding protein (CHHBP), an E. sinensis flotillin-like protein (natural protein)",Kd,[1],2.52 nM
same,Kd,[2],6.81 nM
